Test results as given in patent US20200308270A1 (Zymeworks, published 2020).
Where a chain is given by its changes, count along the chain named.

T1: human recombinant FcgammaR receptor CD32aR (human, UniProt P12318 34-217, limits assumed)
T1 sequence (looked up): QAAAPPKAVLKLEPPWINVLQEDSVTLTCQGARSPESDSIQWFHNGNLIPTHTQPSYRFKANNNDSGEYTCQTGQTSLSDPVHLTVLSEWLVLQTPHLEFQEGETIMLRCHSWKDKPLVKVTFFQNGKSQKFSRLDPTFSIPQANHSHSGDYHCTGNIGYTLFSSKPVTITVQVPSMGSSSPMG

T2: recombinant human sFas receptor (human, UniProt P25445 17-173, limits assumed)
T2 construct: Bought reagent
T2 sequence (looked up): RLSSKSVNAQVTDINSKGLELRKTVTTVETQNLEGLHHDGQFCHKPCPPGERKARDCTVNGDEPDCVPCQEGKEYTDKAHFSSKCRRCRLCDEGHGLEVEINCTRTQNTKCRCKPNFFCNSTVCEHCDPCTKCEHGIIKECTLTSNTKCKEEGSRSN

B1: CAT-2200 wild-type lambda Mab (antibody, human IgG1, lambda)
heavy: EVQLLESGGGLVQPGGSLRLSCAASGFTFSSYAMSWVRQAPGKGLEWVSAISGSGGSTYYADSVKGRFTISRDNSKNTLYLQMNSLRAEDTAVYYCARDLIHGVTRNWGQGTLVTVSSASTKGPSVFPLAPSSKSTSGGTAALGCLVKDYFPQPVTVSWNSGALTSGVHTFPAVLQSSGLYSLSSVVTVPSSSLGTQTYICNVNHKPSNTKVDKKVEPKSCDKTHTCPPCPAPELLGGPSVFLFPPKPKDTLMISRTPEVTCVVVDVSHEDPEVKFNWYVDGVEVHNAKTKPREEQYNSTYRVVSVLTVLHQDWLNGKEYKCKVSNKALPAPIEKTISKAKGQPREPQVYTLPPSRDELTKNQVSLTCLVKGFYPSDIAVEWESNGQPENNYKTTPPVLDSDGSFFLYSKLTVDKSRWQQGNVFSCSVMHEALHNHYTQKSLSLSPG
light: NFMLTQPHSVSESPGKTVTISCTRSSGSLANYYVQWYQQRPGSSPTIVIFANNQRPSGVPDRFSGSIDSSSNSASLTISGLKTEDEADYYCQTYDPYSVVFGGGTKLTVLGQPKAAPSVTLFPPSSEELQANKATLVCLISDFYPGAVTVAWKADSSPVKAGVETTTPSKQSNNKYAASSYLSLTPEQWKSHRSYSCQVTHEGSTVEKTVAPTECS
notes: IgG1 Mab format; also called WT
B2: H3 designed Vlambda-Ckappa chimeric Mab, design 37 (E83A_D85T) (antibody, human IgG1, kappa, name in Kabat numbering)
heavy: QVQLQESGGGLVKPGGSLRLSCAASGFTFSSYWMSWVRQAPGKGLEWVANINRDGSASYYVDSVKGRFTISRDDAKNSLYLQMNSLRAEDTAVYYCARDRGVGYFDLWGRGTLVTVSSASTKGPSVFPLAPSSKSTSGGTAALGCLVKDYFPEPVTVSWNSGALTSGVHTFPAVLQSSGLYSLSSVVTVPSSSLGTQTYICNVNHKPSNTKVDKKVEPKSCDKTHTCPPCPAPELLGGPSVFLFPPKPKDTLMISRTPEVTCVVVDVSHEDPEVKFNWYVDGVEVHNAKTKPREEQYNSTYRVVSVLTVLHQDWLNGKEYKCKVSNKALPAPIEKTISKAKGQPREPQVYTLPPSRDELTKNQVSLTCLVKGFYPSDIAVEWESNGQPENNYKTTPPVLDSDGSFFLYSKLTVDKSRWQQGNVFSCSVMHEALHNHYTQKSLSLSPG
light: QSALTQPASVSGSPGQSITISCTGTSSDVGGYNFVSWYQQHPGKAPKLMIYDVSDRPSGVSDRFSGSKSGNTASLIISGLQADDAATYYCSSYGSSSTHVIFGGGTKVTVLRTVAAPSVFIFPPSDEQLKSGTASVVCLLNNFYPREAKVQWKVDNALQSGNSQESVTEQDSKDSTYSLSSTLTLSKADYEKHKVYACEVTHQGLSSPVTKSFNRGEC
notes: IgG1 Mab format
B3: H3 designed Vlambda-Ckappa chimeric Mab, design 39 (E83A_D85T_T105E_V106I) (antibody, human IgG1, kappa, name in Kabat numbering)
heavy: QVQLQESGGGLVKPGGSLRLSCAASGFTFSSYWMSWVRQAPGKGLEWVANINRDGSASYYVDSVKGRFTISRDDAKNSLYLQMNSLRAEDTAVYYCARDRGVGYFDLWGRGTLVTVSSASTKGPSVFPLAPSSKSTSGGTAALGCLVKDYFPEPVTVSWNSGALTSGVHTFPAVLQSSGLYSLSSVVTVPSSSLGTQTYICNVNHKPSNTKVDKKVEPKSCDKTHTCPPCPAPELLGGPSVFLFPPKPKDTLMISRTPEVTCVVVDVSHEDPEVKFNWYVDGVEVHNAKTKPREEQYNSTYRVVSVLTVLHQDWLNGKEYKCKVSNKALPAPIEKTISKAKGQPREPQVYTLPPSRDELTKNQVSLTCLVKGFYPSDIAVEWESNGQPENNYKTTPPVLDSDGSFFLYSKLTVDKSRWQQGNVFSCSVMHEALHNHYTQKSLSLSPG
light: B2 light with T109E, V110I
notes: IgG1 Mab format
B4: H3 designed Vlambda-Ckappa chimeric Mab, design 29 (E83V_D85T_T105E_V106I) (antibody, human IgG1, kappa, name in Kabat numbering)
heavy: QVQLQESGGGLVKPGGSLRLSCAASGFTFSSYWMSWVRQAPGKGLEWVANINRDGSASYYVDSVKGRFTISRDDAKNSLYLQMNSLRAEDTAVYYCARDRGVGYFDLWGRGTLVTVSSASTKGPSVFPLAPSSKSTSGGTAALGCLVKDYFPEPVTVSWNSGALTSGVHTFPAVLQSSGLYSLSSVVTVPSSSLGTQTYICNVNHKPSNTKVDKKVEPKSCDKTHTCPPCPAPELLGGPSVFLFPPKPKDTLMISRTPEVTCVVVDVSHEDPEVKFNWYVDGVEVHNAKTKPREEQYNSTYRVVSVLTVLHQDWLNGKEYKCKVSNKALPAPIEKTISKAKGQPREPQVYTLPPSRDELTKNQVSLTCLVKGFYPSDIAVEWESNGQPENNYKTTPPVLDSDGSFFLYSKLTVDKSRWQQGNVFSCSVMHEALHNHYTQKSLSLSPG
light: B2 light with A85V, T109E, V110I
notes: IgG1 Mab format
B5: H3 Vlambda-Ckappa chimeric Mab (antibody, human IgG1, kappa)
heavy: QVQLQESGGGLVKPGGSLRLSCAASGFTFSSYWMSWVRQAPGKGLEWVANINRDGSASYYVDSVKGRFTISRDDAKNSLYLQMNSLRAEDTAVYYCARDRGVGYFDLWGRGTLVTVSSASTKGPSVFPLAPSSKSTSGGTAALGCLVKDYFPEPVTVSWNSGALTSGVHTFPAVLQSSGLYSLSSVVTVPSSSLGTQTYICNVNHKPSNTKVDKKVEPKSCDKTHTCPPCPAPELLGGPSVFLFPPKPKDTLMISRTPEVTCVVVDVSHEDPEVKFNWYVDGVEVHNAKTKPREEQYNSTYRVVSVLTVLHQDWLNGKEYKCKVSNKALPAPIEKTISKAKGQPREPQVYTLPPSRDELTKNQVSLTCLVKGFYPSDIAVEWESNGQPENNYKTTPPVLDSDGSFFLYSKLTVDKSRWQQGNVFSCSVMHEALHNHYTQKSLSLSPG
light: B2 light with A85E, T87D
notes: IgG1 Mab format; chimeric light chain without stabilizing substitutions; also called chimera
B6: CAT-2200 designed Vlambda-Ckappa chimeric Mab, design 39 (E83A_D85T_T105E_V106I) (antibody, human IgG1, kappa)
heavy: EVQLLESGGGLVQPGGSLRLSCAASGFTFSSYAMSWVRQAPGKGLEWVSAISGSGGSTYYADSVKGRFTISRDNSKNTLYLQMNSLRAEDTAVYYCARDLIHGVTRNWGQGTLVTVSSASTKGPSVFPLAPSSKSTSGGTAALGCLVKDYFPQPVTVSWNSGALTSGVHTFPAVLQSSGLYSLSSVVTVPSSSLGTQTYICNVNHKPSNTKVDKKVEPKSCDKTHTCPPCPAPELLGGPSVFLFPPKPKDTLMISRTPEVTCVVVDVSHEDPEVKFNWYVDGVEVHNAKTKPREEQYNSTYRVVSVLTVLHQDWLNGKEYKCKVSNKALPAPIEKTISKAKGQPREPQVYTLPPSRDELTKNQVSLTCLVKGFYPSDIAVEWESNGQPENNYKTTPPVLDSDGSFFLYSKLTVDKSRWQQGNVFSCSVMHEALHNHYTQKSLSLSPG
light: NFMLTQPHSVSESPGKTVTISCTRSSGSLANYYVQWYQQRPGSSPTIVIFANNQRPSGVPDRFSGSIDSSSNSASLTISGLKTEDAATYYCQTYDPYSVVFGGGTKLEILRTVAAPSVFIFPPSDEQLKSGTASVVCLLNNFYPREAKVQWKVDNALQSGNSQESVTEQDSKDSTYSLSSTLTLSKADYEKHKVYACEVTHQGLSSPVTKSFNRGEC
notes: IgG1 Mab format
B7: CAT-2200 designed Vlambda-Ckappa chimeric Mab, design 37 (E83A_D85T) (antibody, human IgG1, kappa)
heavy: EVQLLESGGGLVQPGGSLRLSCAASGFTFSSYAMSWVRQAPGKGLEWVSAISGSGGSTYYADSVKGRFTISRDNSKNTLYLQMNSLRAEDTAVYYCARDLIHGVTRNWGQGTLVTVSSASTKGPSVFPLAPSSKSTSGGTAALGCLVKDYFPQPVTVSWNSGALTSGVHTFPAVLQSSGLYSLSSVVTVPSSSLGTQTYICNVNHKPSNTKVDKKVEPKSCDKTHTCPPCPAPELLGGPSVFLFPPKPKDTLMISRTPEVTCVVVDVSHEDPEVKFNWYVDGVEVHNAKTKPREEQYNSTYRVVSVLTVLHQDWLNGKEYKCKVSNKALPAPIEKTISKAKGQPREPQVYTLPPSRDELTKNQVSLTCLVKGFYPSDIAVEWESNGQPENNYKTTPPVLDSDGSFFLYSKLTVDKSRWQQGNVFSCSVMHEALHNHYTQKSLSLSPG
light: B6 light with E108T, I109V
notes: IgG1 Mab format
B8: CAT-2200 Vlambda-Ckappa chimeric Mab (antibody, human IgG1, kappa)
heavy: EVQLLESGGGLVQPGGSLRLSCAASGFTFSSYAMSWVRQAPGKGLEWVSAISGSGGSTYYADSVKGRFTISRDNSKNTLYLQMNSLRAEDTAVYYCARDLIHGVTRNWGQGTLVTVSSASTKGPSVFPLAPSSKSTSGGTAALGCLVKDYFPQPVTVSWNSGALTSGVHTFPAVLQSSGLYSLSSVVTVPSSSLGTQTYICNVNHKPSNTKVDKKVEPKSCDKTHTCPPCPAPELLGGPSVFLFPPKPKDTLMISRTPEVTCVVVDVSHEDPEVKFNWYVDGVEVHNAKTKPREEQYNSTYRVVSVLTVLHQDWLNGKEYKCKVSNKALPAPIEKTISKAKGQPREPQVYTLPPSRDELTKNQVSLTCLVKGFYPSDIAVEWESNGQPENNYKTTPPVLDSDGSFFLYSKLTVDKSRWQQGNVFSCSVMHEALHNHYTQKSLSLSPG
light: B6 light with A86E, T88D, E108T, I109V
notes: as for B5
B9: CAT-2200 designed Vlambda-Ckappa chimeric Mab, design 29 (E83V_D85T_T105E_V106I) (antibody, human IgG1, kappa)
heavy: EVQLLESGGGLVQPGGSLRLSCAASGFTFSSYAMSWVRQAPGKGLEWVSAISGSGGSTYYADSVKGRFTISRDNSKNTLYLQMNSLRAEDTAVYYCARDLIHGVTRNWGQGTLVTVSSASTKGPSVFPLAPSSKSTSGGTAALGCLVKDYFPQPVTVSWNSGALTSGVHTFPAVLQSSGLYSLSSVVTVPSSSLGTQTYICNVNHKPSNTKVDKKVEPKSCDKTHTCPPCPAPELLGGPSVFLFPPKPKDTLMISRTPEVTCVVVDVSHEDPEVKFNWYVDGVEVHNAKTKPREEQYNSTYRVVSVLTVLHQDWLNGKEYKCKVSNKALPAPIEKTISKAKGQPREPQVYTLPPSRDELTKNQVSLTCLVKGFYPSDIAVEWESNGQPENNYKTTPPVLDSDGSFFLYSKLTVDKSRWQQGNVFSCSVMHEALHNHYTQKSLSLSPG
light: B6 light with A86V
notes: IgG1 Mab format
B10: H3 wild-type lambda Mab (antibody, human IgG1, lambda)
heavy: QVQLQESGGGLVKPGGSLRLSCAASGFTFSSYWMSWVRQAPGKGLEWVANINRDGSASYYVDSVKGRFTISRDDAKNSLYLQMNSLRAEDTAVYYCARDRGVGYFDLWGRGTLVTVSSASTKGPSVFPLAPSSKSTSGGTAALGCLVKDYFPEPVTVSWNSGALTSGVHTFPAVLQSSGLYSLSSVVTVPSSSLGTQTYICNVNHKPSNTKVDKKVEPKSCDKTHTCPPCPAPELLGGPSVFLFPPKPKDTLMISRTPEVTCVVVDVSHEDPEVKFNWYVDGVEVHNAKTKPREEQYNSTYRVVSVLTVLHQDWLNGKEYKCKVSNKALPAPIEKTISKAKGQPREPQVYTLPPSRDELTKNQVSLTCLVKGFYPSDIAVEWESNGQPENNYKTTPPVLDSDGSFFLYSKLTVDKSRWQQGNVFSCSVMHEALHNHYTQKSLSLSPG
light: QSALTQPASVSGSPGQSITISCTGTSSDVGGYNFVSWYQQHPGKAPKLMIYDVSDRPSGVSDRFSGSKSGNTASLIISGLQADDEADYYCSSYGSSSTHVIFGGGTKVTVLGQPKAAPSVTLFPPSSEELQANKATLVCLISDFYPGAVTVAWKADSSPVKAGVETTTPSKQSNNKYAASSYLSLTPEQWKSHRSYSCQVTHEGSTVEKTVAPTECS
notes: as for B1
B11: H3 designed Vlambda-Ckappa chimeric Mab, design 26 (E83V_D85T) (antibody, human IgG1, kappa, name in Kabat numbering)
heavy: not shown
light: B2 light with A85V
notes: IgG1 Mab format
B12: H3 designed Vlambda-Ckappa chimeric Mab, design 34 (E83I_D85T_T105E_V106I) (antibody, human IgG1, kappa, name in Kabat numbering)
heavy: not shown
light: B2 light with A85I, T109E, V110I
notes: IgG1 Mab format
B13: H3 designed Vlambda-Ckappa chimeric Mab, design 18 (E83F_D85T_T105E) (antibody, human IgG1, kappa, name in Kabat numbering, V domains shown)
VH: QVQLQESGGGLVKPGGSLRLSCAASGFTFSSYWMSWVRQAPGKGLEWVANINRDGSASYYVDSVKGRFTISRDDAKNSLYLQMNSLRAEDTAVYYCARDRGVGYFDLWGRGTLVTVSS
VL: QSALTQPASVSGSPGQSITISCTGTSSDVGGYNFVSWYQQHPGKAPKLMIYDVSDRPSGVSDRFSGSKSGNTASLIISGLQADDFATYYCSSYGSSSTHVIFGGGTKVEVLR
notes: IgG1 Mab format
B14: H3 designed Vlambda-Ckappa chimeric Mab, design 32 (E83I_D85T) (antibody, human IgG1, kappa, name in Kabat numbering)
heavy: not shown
light: B2 light with A85I
notes: IgG1 Mab format
B15: CAT-2200 designed Vlambda-Ckappa chimeric Mab, design 26 (E83V_D85T) (antibody, human IgG1, kappa)
heavy: not shown
light: B6 light with A86V, E108T, I109V
notes: IgG1 Mab format
B16: CAT-2200 designed Vlambda-Ckappa chimeric Mab, design 32 (E83I_D85T) (antibody, human IgG1, kappa)
heavy: not shown
light: B6 light with A86I, E108T, I109V
notes: IgG1 Mab format
B17: CAT-2200 designed Vlambda-Ckappa chimeric Mab, design 18 (E83F_D85T_T105E) (antibody, human IgG1, kappa, V domains shown)
VH: not shown
VL: NFMLTQPHSVSESPGKTVTISCTRSSGSLANYYVQWYQQRPGSSPTIVIFANNQRPSGVPDRFSGSIDSSSNSASLTISGLKTEDFATYYCQTYDPYSVVFGGGTKLEVLR
notes: IgG1 Mab format
B18: CAT-2200 designed Vlambda-Ckappa chimeric Mab, design 34 (E83I_D85T_T105E_V106I) (antibody, human IgG1, kappa)
heavy: not shown
light: B6 light with A86I
notes: IgG1 Mab format
B19: EP6b_B01 Vlambda-Ckappa chimeric Fab (Fab, V domains shown)
VH: QLQLQESGPGLVKPSETLSLTCTVSGASISANSYYGVWVRQSPGKGLEWVGSIAYRGNSNSGSTYYNPSLKSRATVSVDSSKNQVSLRLTSVTAADTALYYCARRQLLDDGTGYQWAAFDVWGQGTMVTVSS
VL: QSVLTQPPSVSEAPRQTVTISCSGNSSNIGRYPVNWYQQLPGKAPKLLIYSDNLRFSGVPDRFSGSKSGTTASLAIRDLLSEDEADYYCSTWDDTLEGWVFGGGTKVTVLR
notes: Parent chimeric Fab without stabilizing substitutions; also called chimera; VL-CK chimeric Fab
B20: EP6b_B01 wild-type lambda Fab (Fab, V domains shown)
VH: B19 VH
VL: B19 VL with R111G
notes: Truncated heavy chain (VH-CH1-upper IgG1 hinge, no His tag) and wild-type lambda light chain; also called WT
B21: EP6b_B01 designed Vlambda-Ckappa chimeric Fab, design 18 (E83F_D85T_T105E) (Fab, name in Kabat numbering, V domains shown)
VH: B19 VH
VL: B19 VL with E84F, D86T, T108E
B22: EP6b_B01 designed Vlambda-Ckappa chimeric Fab, design 26 (E83V_D85T) (Fab, name in Kabat numbering, V domains shown)
VH: B19 VH
VL: B19 VL with E84V, D86T
B23: EP6b_B01 designed Vlambda-Ckappa chimeric Fab, design 37 (E83A_D85T) (Fab, name in Kabat numbering, V domains shown)
VH: B19 VH
VL: B19 VL with E84A, D86T
B24: EP6b_B01 designed Vlambda-Ckappa chimeric Fab, design 32 (E83I_D85T) (Fab, name in Kabat numbering, V domains shown)
VH: B19 VH
VL: B19 VL with E84I, D86T
B25: EP6b_B01 designed Vlambda-Ckappa chimeric Fab, design 29 (E83V_D85T_T105E_V106I) (Fab, name in Kabat numbering, V domains shown)
VH: B19 VH
VL: B19 VL with E84V, D86T, T108E, V109I
B26: EP6b_B01 designed Vlambda-Ckappa chimeric Fab, design 34 (E83I_D85T_T105E_V106I) (Fab, name in Kabat numbering, V domains shown)
VH: B19 VH
VL: B19 VL with E84I, D86T, T108E, V109I

biological target: T1, human recombinant FcgammaR receptor …; assay: SPR (ProteOn), Mab captured via anti-human Fc, FcgammaR analyte
Procedure: (§1) Goat polyclonal anti-human Fc antibody was purchased from Jackson Immuno Research Laboratories Inc. (West Grove, Pa.). […] Human recombinant FcγR receptors: CD16aV, CD32bF, CD32aR, and CD32aH were expressed as constructs containing a His10-tag at the C-terminus and purified by Ni-affinity chromatography followed by His-tag removal and SEC purification.
(§2) FcγR affinity determination was carried out as follows. The screening of Mabs for binding to various FcγR receptors occurred in two steps: an indirect capture of Mab samples onto the anti-human Fc-specific polyclonal antibody surface, followed by the injection of five concentrations of each of FcγR receptors. The anti-human Fc surface was prepared on a GLC sensorchip by amine coupling. GLC sensorchip surface was activated by a 1:10 dilution of the standard BioRad sNHS/EDC solutions injected for 140s at 100 μL/min in the analyte (horizontal) direction. Immediately after the activation, 25 microg/mL solution of anti-human Fc in 10 mM NaOAc pH 4.5 was injected in the analyte direction at a flow rate of 25 microL/min for 240s until approximately 4500 or 2500 resonance units (RUs) were immobilized. Remaining active groups were quenched by a 300s injection of 1M ethanolamine at 30 μL/min also in the analyte direction. Mabs for analysis were indirectly captured onto the anti-human Fc surface by injecting 10 microg/ml solutions in the ligand (vertical) direction at a flow rate of 25 microL/min for 240s. Each of the FcγR receptors was subsequently injected in the analyte (horizontal) direction. Firstly, two buffer injections for 30s at 100 microL/min in the analyte (horizontal) direction were used to stabilize the baseline. Five concentrations of a three-fold dilution series of each of the four FcγR receptors starting at 10 μM with a blank buffer control were then simultaneously injected at 50 microL/min for 120 s with a 3 minute dissociation phase, resulting in a set of binding sensorgrams with a buffer reference. […] Sensorgrams were aligned and double-referenced using the buffer blank injection and interspots, and the resulting sensorgrams were analyzed using ProteOn Manager software v3.1.

| Kd | Binder |
| --- | --- |
| 2400 nM | B1 |
| 3400 nM | B2 |
| 3100 nM | B3 |
| 4900 nM | B4 |
| 4100 nM | B5 |
| 2400 nM | B6 |
| 2400 nM | B7 |
| 2500 nM | B8 |
| 2300 nM | B9 |
| 3400 nM | B10 |

biological target: human recombinant FcgammaR receptor CD16aV (human, UniProt P08637 17-208, limits assumed); assay: as above
Sequence (P08637 17-208 F176V limits assumed): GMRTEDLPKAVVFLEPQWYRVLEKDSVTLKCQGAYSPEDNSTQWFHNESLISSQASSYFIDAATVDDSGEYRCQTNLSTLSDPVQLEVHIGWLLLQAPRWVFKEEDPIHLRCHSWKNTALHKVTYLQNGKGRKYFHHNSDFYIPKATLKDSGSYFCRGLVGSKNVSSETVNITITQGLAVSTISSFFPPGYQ
Procedure: as §1, §2

| Kd | Binder |
| --- | --- |
| 1200 nM | B1 |
| 1300 nM | B2 |
| 1400 nM | B3 |
| 1100 nM | B4 |
| 1200 nM | B5 |
| 1300 nM | B6 |
| 1400 nM | B7 |
| 1300 nM | B9 |
| 1100 nM | B10 |

biological target: T3, recombinant human HER3 (human, UniProt P21860 20-643); assay: SPR (ProteOn), Mab captured via anti-human Fc, HER3 analyte
T3 construct: Bought reagent
Procedure: HER3 affinity determination in Mabs was carried out as follows. The screening of Mabs for binding to HER3 antigen occurred in two steps: an indirect capture of Mabs onto the anti-human Fc-specific polyclonal antibody surface, followed by the injection of five concentrations of HER3. The anti-human Fc surface was prepared on a GLC sensorchip by amine coupling. GLC sensorchip surface was activated by a 1:10 dilution of the standard BioRad sNHS/EDC solutions injected for 140s at 100 pt/min in the analyte (horizontal) direction. Immediately after the activation, 25 microg/mL solution of anti-human Fc in 10 mM NaOAc pH 4.5 was injected in the ligand (vertical) direction at a flow rate of 25 microL/min for 240s until approximately 3000 resonance units (RUs) were immobilized. Remaining active groups were quenched by a 140s injection of 1M ethanolamine at 100 μL/min also in the analyte direction. Mabs for analysis were indirectly captured onto the anti-Fc surface by injecting 20 microg/mL solutions in the ligand (vertical) direction at a flow rate of 25 microL/min for 240s. HER3 was subsequently injected in the analyte (horizontal) direction. Firstly, two buffer injections for 30s at 100 microL/min in the analyte (horizontal) direction were used to stabilize the baseline. […] Sensorgrams were aligned and double-referenced using the buffer blank injection and interspots, and the resulting sensorgrams were analyzed using ProteOn Manager software v3.1. The double-referenced sensorgrams were fit to the Langmuir binding model.

| Kd | Binder |
| --- | --- |
| 67 nM | B2 |
| 56 nM | B11 |
| 60 nM | B12 |
| 61 nM | B3 |
| 66 nM | B13 |
| 67 nM | B14 |
| 64 nM | B4 |
| 63 nM | B5 |
| 85 nM | B10 |

biological target: T3, recombinant human HER3; assay: SPR

| fold difference of KD against the wild-type lambda Mab control | Binder |
| --- | --- |
| ≤ 1.5 fold | B5 |

biological target: T4, recombinant human IL-17A (human, UniProt Q16552 20-155, limits assumed); assay: SPR (ProteOn), IL-17A immobilized, Mab analyte
T4 construct: Bought reagent
T4 sequence (Q16552 20-155 limits assumed): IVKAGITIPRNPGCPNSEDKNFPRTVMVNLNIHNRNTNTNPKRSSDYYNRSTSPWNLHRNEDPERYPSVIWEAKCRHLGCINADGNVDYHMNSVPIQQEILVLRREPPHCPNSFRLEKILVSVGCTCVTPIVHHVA
Procedure: IL-17 affinity determination was carried out as follows. The IL-17A surface was generated using a GLC sensorchip activated by a 1:10 dilution of the standard BioRad sNHS/EDC solutions injected for 140s at 100 pt/min in the ligand (vertical) direction. Immediately after the activation, 1 to 4 microg/mL solution of IL-17A in 10 mM NaOAc pH 4.5 was injected in the ligand (vertical) direction at a flow rate of 25 or 100 microL/min until approximately 75-200 resonance units (RUs) were immobilized. Remaining active groups were quenched by a 140s injection of 1M ethanolamine at 100 μL/min also in the ligand direction. […] Firstly, two buffer injections for 30s at 100 microL/min in the analyte (horizontal) direction were used to stabilize the baseline. […] Sensorgrams were aligned and double-referenced using the buffer blank injection and interspots, and the resulting sensorgrams were analyzed using ProteOn Manager software v3.1. The double-referenced sensorgrams were fit to the Langmuir binding model.

| Kd | Binder |
| --- | --- |
| 0.027 nM | B1 |
| 0.044 nM | B6 |
| 0.048 nM | B15 |
| 0.048 nM | B7 |
| 0.05 nM | B16 |
| 0.042 nM | B8 |
| 0.048 nM | B17 |
| 0.049 nM | B9 |
| 0.053 nM | B18 |

biological target: T2, recombinant human sFas receptor; assay: SPR (Biacore T200), Fas immobilized, Fab analyte
Procedure: Fas affinity determination was carried out as follows. Fas was diluted in 10 mM acetate buffer pH 5.5 and directly immobilized via amine coupling onto a CMS Series S sensor chip. […] The reference flow cell was left empty (ethanolamine blocked) to use as a blank control. Fabs were injected over both the ethanolamine-blocked reference surface and the Fas surface for kinetic analysis using single cycle kinetics. […] Fas surfaces were regenerated using 2 cycles of 10 mM glycine pH 1.5 for 120 s at 30 pt/min to prepare the surfaces for the next injection cycle. At least two mock-buffer injections were performed for each analyte injection to be used for referencing. The resulting single cycle kinetics sensorgrams were analyzed using Biacore T200 BiaEvaluation software version 3.0 and fit to the 1:1 binding model.

| Kd | Binder |
| --- | --- |
| 0.0512 nM | B19 |
| 0.0546 nM | B20 |
| 0.0449 nM | B21 |
| 0.0486 nM | B22 |
| 0.0492 nM | B23 |
| 0.0471 nM | B24 |
| 0.0479 nM | B25 |
| 0.0484 nM | B26 |

biological target: T5, human recombinant FcRn (human, UniProt P55899 24-297; P61769 21-119, limits assumed); assay: SPR (ProteOn), FcRn immobilized, Mab analyte, pH 5.8
T5 construct: also called neonatal receptor
Procedure: FcRn affinity determination was carried out as follows. FcRn surface was generated using a GLC sensorchip activated by a 1:10 dilution of the standard BioRad sNHS/EDC solutions injected for 140s at 100 μL/min in the ligand (vertical) direction. Immediately after the activation, 10 microg/mL solution of FcRn in 10 mM NaOAc pH 4.5 was injected in the ligand (vertical) direction at a flow rate of 25 microL/min for 120s until approximately 2000 resonance units (RUs) were immobilized. Remaining active groups were quenched by a 140s injection of 1M ethanolamine at 30 μL/min also in the ligand direction. The running buffer used on the FcRn surface was PBST pH 5.8. The screening of the Mabs for binding to FcRn was performed by injection of purified Mabs in the analyte (horizontal) direction. Firstly, two buffer injections for 30s at 100 microL/min in the analyte (horizontal) direction were used to stabilize the baseline. Five concentrations of a three-fold dilution series of each Mab starting at 100 nM with a blank buffer control were simultaneously injected at 50 microL/min for 120 s with a 10 minute dissociation phase, resulting in a set of binding sensorgrams with a buffer reference. […] Sensorgrams were aligned and double-referenced using the buffer blank injection and interspots, and the resulting sensorgrams were analyzed using ProteOn Manager software v3.1. The double-referenced sensorgrams were fit to the Langmuir binding model.

| Kd | Binder |
| --- | --- |
| 14.2 nM | B1 |
| 80.2 nM | B2 |
| 96.7 nM | B3 |
| 86.1 nM | B4 |
| 74.6 nM | B5 |
| 24.7 nM | B6 |
| 23.4 nM | B7 |
| 14.3 nM | B8 |
| 27.9 nM | B9 |
| 48.6 nM | B10 |
